Assay results reported in the nanobody polyreactivity screen of Harvey et al. (2022).

test: yeast display, Sf9 membrane polyspecificity reagent, FACS + sequencing; frameworks hold sequencing errors
Summary of the method: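 In a synthetic yeast display library (Saccharomyces cerevisiae BJ5465), nanobody expression was induced with galactose for 36–48 hours. FACS gates were set low and high (top ~1%) using anti-HA fluorescence for expression and streptavidin fluorescence for binding of the Sf9 membrane reagent. Each polyreactivity label is drawn from the gate of origin.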

Row | Sequence | polyreactivity (PSR sort gate)
1 | QVQLVESGGGLVQAGGSLRLSCAASGITFSFYAMGWYRQAPGKERELVATIDSGGSTNYADSVKGRFTISRDNAKNTVYLQMNSLKPEDTAVYYCAADGVWYYYDMDYWGQGTQVTVSS | low polyreactivity
2 | QVQLVESGGGLVQAGGSLRLSCAASGITFSGYGMGWYRQAPGKERELVAAISRSGGSTYYADSVKGRFTISRDNAKNTVYLQMNSLKPEDTAVYYCATASRTSRTGWAGYYWGQGTQVTVSS | high polyreactivity
3 | QVQLVESGGGLVQAGGSLRLSCAASGITFSHNAMGWYRQAPGKERELVAAITRSGGSTYYADSVKGRFTISRDNAKNTVYLQMNCLKPEDTAVYYCATEDYYRQYGYWSLSRMDHWGQGTQVTVSS | low polyreactivity
4 | QVQLVESGGGLVQAGGSLRLSCAASGITFSHNAMGWYRQAPGKERELVAAITRSGRSTYYADSVKGRFTISRDNAKNTVYLQMNSLKPEDTAVYYCSTDNHQRRAGSGYWGQGTQVTVSS | low polyreactivity
5 | QVQLVESGGGLVQAGGSLRLSCAASGITFSKYAMGWYRQAPGKERELVAAITTSGVSTYYADSVKGRFTISRDNAKNTVYLQMNSLKPEDTAVYYCATELGWGGFYKYGHASQFDYWGQGTQVTVSS | low polyreactivity
6 | QVQLVESGGGLVQAGGSLRLSCAASGITFSPYTMGWYRQAPGKERELVAAINSGGRTNYADSVKGRFTISRDNAKNTVYLQMNSLKPEDTAVYYCTKRGHPARLGYYYWGQGTQVTVSS | low polyreactivity
7 | QVQLVESGGGLVQAGGSLRLSCAASGITFSPYTRGWYRQATGKERELVAAINDGAITYYADSVKGRFTISRDNAKNTVYLQMNSQKPEDTAVYYCAAAAWGTDPFSTDYASYDYWGQVTQVTVSS | low polyreactivity
8 | QVQLVESGGGLVQAGGSLRLSCAASGITFSQYAMGWYRPAPGKERELVAAISWSGVRTYYADSVKGRFTISRDNSKNTVYLQMNSLKPEDTAVYYCAAVPVYYGYDYWGQGTQVTVSS | high polyreactivity
9 | QVQLVESGGGLVQAGGSLRLSCAASGITFSRNAMGWSRQARGKERELVAAISRGGSTNYADSVKGRFTISRDNAKNTVYLQMNSLKPEDTAVYYCNAPGYLSWRFYGVKRNYWGQGTQVTVSS | high polyreactivity
10 | QVQLVESGGGLVQAGGSLRLSCAASGITFSRNAMGWYRQAPGKERELVATITSGGSTNYADSVKGRFTISRDNAKNTVYLQMNSLKPEDTAVYYCAVDYDSYWYGTYVNEYDYWGQGTQVTVSS | low polyreactivity
11 | QVQLVESGGGLVQAGGSLRLSCAASGITFSRNGMGWYRQAPGKERELVAAISTSGDSTDYADSVKGRFTISRDNAKNTVYLQMNSLKPEDTAVYYCATEWSYYNYGYDYWGQGTQVTVSS | low polyreactivity
12 | QVQLVESGGGLVQAGGSLRLSCAASGITFSRYTMGWYRQAPGKERELVAGISSRGGSTYYADSVKGRFTISRDNAKNTVYLQMNSLKPEDTAVYYCAADGEHYPWYYYWGQGTQVTVSS | high polyreactivity
13 | QVQLVESGGGLVQAGGSLRLSCAASGITFSSYVMGWYRQAPGKERELVAAISRSGGITYYADSVKGRFTISRDNAKNTVYIQMNSLKPEDTAVYYCAATFPAGWSYANYYYWGQGTQVTVSS | high polyreactivity
14 | QVQLVESGGGLVQAGGSLRLSCAASGITFSTYAMGWYRQAPGKERELVAAINWSGGSTRYADSVKGRFTISRDNAKNTVYLQMNSLKPADTAVYYCAAEVQGQVGEFDYWGQGTQVTVSS | low polyreactivity
15 | QVQLVESGGGLVQAGGSLRLSCAASGITFSVNAMGWYRQAPGKEREFVAAISSSGGSTYYADSLKGRFTISRDNAKNTVYLQMNSLKPEDTAVYYCAASGRVQRQHYRPYPYGYWGQGTQVTVSS | high polyreactivity
16 | QVQLVESGGGLVQAGGSLRLSCAASGITFSVYAMGWYRQAPGKERELVASISSGGTSTYYADSVKGRFTISRDNAKNNVYLQMNSLKTEDSAVYYCAAYSYYTGDQYSYDYWGQGTQVTVSS | low polyreactivity
17 | QVQLVESGGGLVQAGGSLRLSCAASGITFSWNAMGRYRQAPGKERELVASITENTGCTYYADSVKGRFTISRDNAKNTVYLQMNSLKPEDTAVDYCWYTQNTLGNYWGQGTQVTVSS | low polyreactivity
18 | QVQLVESGGGLVQAGGSLRLSCAASGITFSYNAMGWYRQAPGKERELVAAITWSGDSTYYADSVKGRFTISRDNAKNTVYLQMNSLKPEDTAVYYCNARYLRLRYPYTDEYNYWGQGTQVTVSS | low polyreactivity
19 | QVQLVESGGGLVQAGGSLRLSCAASGITFSYNVMGWYRQAPGKEREFVAAISDGGSTYYADSVKGRFTISRDNAKNTVYLQMNSLKPEDTAVYFCAKGYRYTYSQQVIYDYYYWGQGTQVTVSS | low polyreactivity
20 | QVQLVESGGGLVQAGGSLRLSCAASGITFSYYAMGWYRQAPGKEMELVAAISGRDTRTYYADSVKGRFTISRDNAKNTVYLQMNSLKPEDTAVYYCNAVRKHLLKYDYWGQGTQVTVSS | high polyreactivity
21 | QVQLVESGGGLVQAGGSLRLSCAASGITFSYYAMGWYRQAPGKERELVAAITGGSTYYADSVKGRFTISRDNAKNTVYLQMNSLKPEDTAVYYCNADSLFEYLDYDYWGQGTQVTVSS | low polyreactivity
22 | QVQLVESGGGLVQAGGSLRLSCAASGITFTDNTMGWYRQAPGKERELVAAISRSGTSTYYADSVKGRFTISRDNAKNTVYLQMNSLKPEDTAVYYCAALSYVPSPYYYWGQGTQVTVSS | high polyreactivity

Row | Sequence | polyreactivity (PSR sort gate)
23 | QVQLVESGGGLVQAGGSLRLSCAASGITFTEYAMGWYRQAPGKERELVAAITGSGTSTYYADSVKGRFTISRDNAKNTVYLQMNSLKPEDTAVYYCAAERKNKYDYWGQGTQVTVSS | high polyreactivity
24 | QVQLVESGGGLVQAGGSLRLSCAASGITFTFNAMGWYRQAPGKERELVAAISSTTSTKYADSVKGRFTISRDNAKNTVYLQMNSLKPEDTAVYYCALTYLLRYYGYRDDEYDYWGQGTQVTVSS | low polyreactivity
25 | QVQLVESGGGLVQAGGSLRLSCAASGITFTPNAMGWYRQAPGKEREFVAAITYSGGSTYYADSVKGRFTISRDNAKNTVYLQMNSLKPEDTAVYYCAADSFAWWGSRYDYWGQGTQVTVSS | low polyreactivity
26 | QVQLVESGGGLVQAGGSLRLSCAASGITFTQYAMGWYRQAPGKELELVAAITSSGGSTYYADSVKERFTISRDNAKNTVYLQMNSLKPEDTAVYYFIAVRRRQSDYWGQGTQVTVSS | high polyreactivity
27 | QVQLVESGGGLVQAGGSLRLSCAASGITFTQYAMGWYRQAPGKERELVASITSSGDNTYYADSVKGRFTISRDNAKNTVYLQMNSLKPEDTAVYYCNARYKWSRRKPWGYWGQGTQVTVSS | high polyreactivity
28 | QVQLVESGGGLVQAGGSLRLSCAASGITFTRYGMGWYRQAPGKERELVAVISSSGGRTYYADSVKGRFTISRDNAKNTVYLQMNSLKPEDTAVYYCATVRVLAKYRPKMDYWGQGTQVTVSS | high polyreactivity
29 | QVQLVESGGGLVQAGGSLRLSCAASGITFTSYAMGWYRQAPGKERELVAAISSSGVRTYYADSVKGRFTISRDYAKNTVYLQMKSLKPEDTAVYYCATRRRVLYGYDYWGQGTQVTVSS | high polyreactivity
30 | QVQLVESGGGLVQAGGSLRLSCAASGITFTSYVMGWYRQAPGKERELVAAIRWSGGRTYYADSVKGRFTISRDNAKNTVYLQINSLKPEDTAVYYCAAYPSYYGDSGLRYDYWGQGTQVTVSS | high polyreactivity
31 | QVQLVESGGGLVQAGGSLRLSCAASGITFTSYVMGWYRQAPGKERELVAAIRWSGGRTYYADSVKGRFTITRDNAKNTVYLQMNSLKPEDTAGYYCAAKRKPRPSYRYGYWGQGTQVTVSS | high polyreactivity
32 | QVQLVESGGGLVQAGGSLRLSCAASGITFTYYAMGWYRQAPGKERELVAAISYSGGSTYYADSVKGRFTISRDNAKITGYLQMNSLKREDTAVYYCATDARDGHDYWGQGTQVTVSS | high polyreactivity
33 | QVQLVESGGGLVQAGGSLRLSCAASGITFVFYAMGWYRQAPGKEREFVAGITWRGGRTYYADSVKGRFTISRDNAKNTVYLQMNSLKPEDTAVYYCNARSVVLTGGDYWGQGTQVTVSS | high polyreactivity
34 | QVQLVESGGGLVQAGGSLRLSCAASGITFVFYAMGWYRQAPGKERELVAAISWSGGITYYADSVKGRFTISRDNAKNTVYLQMNSLKPEDTAFYYCAATKRQTKYYGGTTDSIMYYWGQGTQVTVSS | low polyreactivity
35 | QVQLVESGGGLVQAGGSLRLSCAASGITFVGNAMGGYRQATGKERELVAVIRGNGGSTYYADSVKGRFTISRDNAKNTVYLQMNSLKPEDTAVYYCAAAAYYADFDYLGQGTQVTVSS | low polyreactivity
36 | QVQLVESGGGLVQAGGSLRLSCAASGITFVINGMGWYRQAPGKESELLAAISKSGRTYYADSVKGRFTISRDNAKNTVFIQMNSLTPEDSAVYYCNNVPYPSNDYWGQGTQVTVSS | high polyreactivity
37 | QVQLVESGGGLVQAGGSLRLSCAASGITFVIYAMGWYRQAPGKEREFVAGINWSTGSTYYADTVKGRFTISRDYAKNTVYLQMNSLKPEDTAVYYFNVDAIINAIGAYWYDFDYWGQGTQVTVSS | low polyreactivity
38 | QVQLVESGGGLVQAGGSLRLSCAASGITFVKNAMGWYRQAPGKERELVARIRIGGSTSYADSVKGRFTFSRDNAKNTVYLQMNSLKPEDTAVYYCARYAGRLSYRYEYWGQGTQVTVSS | high polyreactivity
39 | QVQLVESGGGLVQAGGSLRLSCAASGITFVKNAMGWYRQAPGKERELVARIRIGGSTSYADSVKGRFTISRDNAKNTVYLQRNSLKPEDNAVYYCARYAGRLSYRYEYWGQGTQVTVSS | high polyreactivity
40 | QVQLVESGGGLVQAGGSLRLSCAASGITFVKYAMGWYRQAPGKERELVAAISGSGGSTSYADSVKGRFTISRDNAKNTVYLQMNSLKPEDTAVYYCNKAIVRYPKTRDYWGQGTQVTVSS | low polyreactivity
41 | QVQLVESGGGLVQAGGSLRLSCAASGITFVPNAMGWYRQAPGKERELVARIDNGVSTNYADSVKGRFTISRDNAKNTVYLQMNSLKPEDTAVYYCAKDGYWGDWDLYYWGQGTQVTVSS | low polyreactivity
42 | QVQLVESGGGLVQAGGSLRLSCAASGITFVPYAMGWSRQAPGKERELVAAITWRGGSTYYADSVKGRFTISRDNAKNTVYLQMNSLKPEDTAVYYCAVKFRSSQYQLQYGSLGQGTQVTVSS | high polyreactivity
43 | QVQLVESGGGLVQAGGSLRLSCAASGITFVPYAMGWYRQAPGKEREFVARITWSGGGTYYADSVKGRFTISRDNAKNTVYLQMNSLKPEDTAVYYSNKASLPTYYYVDGSDSWGQGTQVTVSS | low polyreactivity
